One experiment concerns H69. Put plainly: Flow cytometry binding to endogenous cell line H69. Type of experiment: cell-based. Also noted: key: (−): No binding; (+): Weak binding; (++): Moderate binding; (+++): Strong binding. The settings on record: primary antibody 1 ug/ml. The procedure: Staining for flow cytometry was performed in 1× cold PBS with 0.5% BSA. Primary antibodies (1 ug/ml) were incubated with live cells on ice for 30 minutes, after a brief wash, cells were incubated with Alexa Fluro® 488-conjugated anti-human IgG secondary antibody @1:1000 (709-546-149, Jackson ImmunoResearch). Acquisition of the data was performed on a MACSQuant® Flow Cytometers (Miltenyi Biotec) and analyzed with FlowJo software.
In general terms: A flow cytometer gives signals particle by particle.

The next experiment deals with T1, recombinant human IL1RAP (Homo sapiens, UniProt Q9NPH3).
T1 construct: MBP-IL1RAP(S21-T367)-; 8xHis (C); made in house; host or cells: CHO (ExpiCHO transient expression)
Put plainly: Binding competition binning on Octet. As to conditions: Protein A biosensors. In outline: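 Protein A biosensors loaded with first antibody (10 ug/mL, 5 min), blocked with irrelevant antibody (100 ug/mL, 5 min). Then exposed to recombinant human IL1RAP (1 min) and a second antibody (1 min). Octet interferometry signal increase indicates non-competing pairs; antibodies assigned to bins.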

The subject of a further experiment is IL-1β signaling. Put plainly: IL-1 signaling reporter cell assay (HEK-Blue IL-1β cells), IL-1β. Type of experiment: cell-based. In outline:
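HEK-Blue IL-1β reporter cells, 50,000/well in duplicate, preincubated 30 min with IL1RAP antibodies or human IgG1 control (1-10 pg/ml), then stimulated overnight with 0.5 ng/ml IL-1β. Agonism checked with 10 μg/mL antibody without ligand. Supernatant substrate read-out by absorbance at 620 nm.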

Experiment [1] concerns TARC expression in PBMCs stimulated with HDM and IL-4. Put plainly: TARC in PBMCs treated by HDM and hIL-4. The format is cell-based, human. Here is the method: 0.2 million PBMCs in 100 ul medium (RPMI1640, 10% heat-inactivated FBS) were added to each well of 96 well cell culture plate. BFB759 at multiple concentrations in 50 ul medium was added to the wells. The cells were incubated in the incubator for 45 min. Then, 50 ul HDM solution (final concentration 10 ug/ml) was added to the wells. After 7 days incubation, the supernatant was transferred to a new 96 well plate, and used in TARC ELISA right away, or frozen in −80 C freezer for ELISA later. For the combination studies of BFB759 with other drugs, the single agent or combination of drugs were added to the PBMCs, incubated for 45 min, then HDM solution, or HDM and IL-4 or IL-13 solution were added to the wells. The assay was incubated for 7 days, and the supernatant was harvested for TARC ELISA.
Dupilumab is approved for treatment of AD (Atopic Dermatitis). It inhibits IL-4/13 signaling by blocking their binding to IL-4Ra. […] (FIG. 15)
In the data shown in FIG. 15, HDM was used at 10 ug/ml, IL-4 was used at […], antibodies were at three different concentrations as shown in the graph. Data shown are mean±s.d.

The test system of experiment [2] is IL-6 secretion in human whole blood cultures stimulated with HKCA. Put plainly: IL-6 production in human whole blood cultures stimulated with heat-killed Candida albicans. The format is cell-based. As to conditions: 24 hours, 1 μg/ml alone, combination 1 μg/ml BFB759 + 0.5 μg/ml adalimumab. The source says:
Materials included Human peripheral blood drawn from 5 healthy donors. Materials also included Anti-human TNF alpha (Adalimumab Biosimilar), BioXCell cat #SIM0001, lot #8024221F1; Heat-killed Candida albicans (HKCA), InvivoGen cat #tlrl-hkca, lot #6292-44-02; RPMI 1640 with L-glutamine and HEPES, Corning cat #10-041-CM; and Human IL-6 DuoSet ELISA, R and D Systems cat #DY206-05. Blood was drawn into heparin tubes from healthy volunteers. Whole blood cultures comprised of whole blood diluted with plain RPMI 1640 medium were set up in sterile 5.0 ml polypropylene snap cap culture tubes. One of the following treatments were added for 1 hour prior to either being left unstimulated or receiving stimulation with 1.5×10^6 cells heat-killed Candida albicans: medium alone (cells alone), 1 μg/ml IgG1 isotype control antibody alone, 1 μg/ml BFB759 alone, 1 μg/ml adalimumab alone, or one of two combination treatments of 1 μg/ml IgG1 isotype control antibody+0.5 μg/ml adalimumab or 1 μg/ml BFB759+0.5 μg/ml adalimumab. The final volume of each culture was 1.0 ml. Cultures were incubated for 24 hours at 37° C./5% CO2. Supernatants harvested from each culture in duplicate were frozen at −80° C. until assayed in duplicate for IL-6 levels by ELISA.

Experiment [3] has as its system normal human dermal fibroblasts (NHDF). Put plainly: IL-6 and IL-8 production in NHDF stimulated with cytokine combo incl. TNF-α. Type of experiment: cell-based. As to conditions: cytokine combo IL-1α/β, IL-36α/β/γ, antibodies 0-20 ug/ml, BFB759 0.5 ug/ml in combination. Here is the method:
Human NHDF cells were plated on 96-well, flat-bottom plates at 4,000 cells/well. […] For combination therapy, 0.5 ug/ml BFB759 was mixed with adalimumab or isotype control antibody at increasing concentrations (0-20 ug/ml, 5-fold dilution) and incubated with cells in duplicate for 45 minutes, prior to the addition of cytokine combo. The plates were then incubated overnight at 37° C., 5% CO2. 24 hours after treatment, supernatants were transferred and assayed for IL-6 and IL-8, as per manufacture's protocol (R&D Systems; Human IL-6 DuoSet ELISA, Human IL-8/CXCL8 DuoSet ELISA). The raw assay data were analyzed using GraphPad Prism 9 software to perform a non-linear regression.

B1: 37E10_15B5: human anti-IL1RAP antibody BFB759 (i.e., 37E10_15B5), VH SEQ ID NO: 64, VL SEQ ID NO: 68 (antibody, V domains shown)
VH: QVQLVESGGGVVQPGRSLRLSCAASGFTFRSHGMHWVRQAPGKGLEWVAVIWYDGSSEYYADSVKGRFTISRDNSKNTLYLQMNSLRAEDTAVYYCARENVYGSGWFFDYWGQGTLVTVSS
VL: EIVMTQSPATLSVSPGERASLSCRASQSVGSNLAWYQQRPGQAPRLLIFGASTRATGIPARFSGSRSGTEFTLTISSLQSEDFALYYCQQYNNWPPWTFGQGTKLEIK
Consider B1, for which the “binding to H69 by flow cytometry” value with H69 is recorded as “(−)”. In addition, the “competition for binding, bin (2)” value with recombinant human IL1RAP is “competed with each other”. In the experiment with IL-1β signaling (HEK-Blue IL-1β cells, antibody 1-10 pg/ml, IL-1β 0.5 ng/ml), the “inhibition of IL1R1 / IL-1 signaling” value is listed as “potent inhibition”. In addition, the “EC50 against IL-1β” value in the experiment on IL-1β signaling (serial dilution of antibody, reporter assay) is given as “subnanomolar”. Also, in experiment [1] (1 or 0.1 ug/ml of BFB759, alone or combined with dupilumab), the “inhibition of TARC expression in the HDM and IL-4 model” value is “minimal inhibition”. Besides, the “inhibition of TARC expression in the HDM and IL-4 model” value in experiment [1] (HDM 10 ug/ml, IL-4 750 ug/ml, three antibody concentrations) is “partially inhibits”. Also, in experiment [2], the “inhibition of IL-6 secretion” value was “inhibit IL-6 secretion”. In addition, in experiment [3], the IL-6 production entry was “dose-dependent decrease” and the IL-8 production result is reported as “dose-dependent decrease”.

These data come from US20260008856A1, “METHODS OF TREATING DISEASE USING ANTI-IL1RAP ANTIBODIES AND ANTIBODY DRUG CONJUGATES” (Bluefin Biomedicine, Inc., priority 2022, published 2026).
